Measurements taken from publication PMC8489356.
“And” between values parts separate entries of the source, which are not always exact repeats. Equal values may be shown once.

Key:
[1] = molecular target: His-tagged recombinant human sortilin (human) (UniProt Q99523); experiment: ELISA
[2] = molecular target: His-tagged recombinant human prosaposin (PSAP) (human) (UniProt P07602); experiment: ELISA
UniProt P07602, sequence (P07602 17-524): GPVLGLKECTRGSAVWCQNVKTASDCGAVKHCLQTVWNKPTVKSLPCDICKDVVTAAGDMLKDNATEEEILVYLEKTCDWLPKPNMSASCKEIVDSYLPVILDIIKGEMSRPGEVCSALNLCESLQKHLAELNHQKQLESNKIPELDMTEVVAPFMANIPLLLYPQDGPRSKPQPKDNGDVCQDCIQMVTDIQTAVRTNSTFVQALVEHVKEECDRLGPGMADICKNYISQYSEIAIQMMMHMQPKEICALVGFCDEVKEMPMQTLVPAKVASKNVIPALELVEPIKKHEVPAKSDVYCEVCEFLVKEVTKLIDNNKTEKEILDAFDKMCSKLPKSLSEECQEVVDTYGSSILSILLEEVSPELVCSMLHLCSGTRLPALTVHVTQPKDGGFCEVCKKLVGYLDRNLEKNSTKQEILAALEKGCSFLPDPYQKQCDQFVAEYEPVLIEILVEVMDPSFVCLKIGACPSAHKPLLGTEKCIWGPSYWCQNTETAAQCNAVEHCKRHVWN

UniProt Q99523, sequence (Q99523 78-755): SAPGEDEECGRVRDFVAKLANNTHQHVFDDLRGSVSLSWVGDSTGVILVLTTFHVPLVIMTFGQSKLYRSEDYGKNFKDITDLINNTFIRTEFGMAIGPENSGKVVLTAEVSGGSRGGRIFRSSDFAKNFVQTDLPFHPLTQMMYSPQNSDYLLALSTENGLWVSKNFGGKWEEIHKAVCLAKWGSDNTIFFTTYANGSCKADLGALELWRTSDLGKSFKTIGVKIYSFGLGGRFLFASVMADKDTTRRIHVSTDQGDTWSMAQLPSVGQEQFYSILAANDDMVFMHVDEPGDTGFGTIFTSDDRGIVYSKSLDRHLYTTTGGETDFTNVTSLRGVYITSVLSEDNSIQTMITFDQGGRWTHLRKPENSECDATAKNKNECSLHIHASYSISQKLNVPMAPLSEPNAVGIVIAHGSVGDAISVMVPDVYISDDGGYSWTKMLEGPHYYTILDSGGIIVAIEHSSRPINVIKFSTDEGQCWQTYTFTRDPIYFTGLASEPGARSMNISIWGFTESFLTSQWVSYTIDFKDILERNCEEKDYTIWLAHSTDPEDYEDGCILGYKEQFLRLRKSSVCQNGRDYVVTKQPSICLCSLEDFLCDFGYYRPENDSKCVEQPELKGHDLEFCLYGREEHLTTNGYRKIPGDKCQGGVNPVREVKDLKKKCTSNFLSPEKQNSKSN

Row | Substance | EC50 [1] | EC50 [2]
1 | protein transport vehicle:PGRN (PTV:PGRN), expressed in Expi293 cells (Fc fusion) | 2.2 nM and 0.47 nM | 1.74 nM and 5.1 nM
2 | Fc:PGRN (huPGRN fused to a normal Fc) (Fc fusion) | 1.8 nM and 0.31 nM | 1.14 nM and 3.9 nM
